Results from US20120214173A1, “Methods of Identifying Modulators of an Ehd Polypeptide” (priority 2007, published 2012).
Entries after “also recorded” stand apart in the source; their conditions may differ.

T1: EHD2 (Mus musculus, UniProt Q8BH64)
T1 construct: Mouse EHD2 full-length protein and all mutants were expressed as N-terminal His-fusions followed by a PreScission cleavage site; His (N, cleaved yes); made in house; host or cells: Escherichia coli BL21 DE3 Rosetta
T1 sequence (Q8BH64 1-543): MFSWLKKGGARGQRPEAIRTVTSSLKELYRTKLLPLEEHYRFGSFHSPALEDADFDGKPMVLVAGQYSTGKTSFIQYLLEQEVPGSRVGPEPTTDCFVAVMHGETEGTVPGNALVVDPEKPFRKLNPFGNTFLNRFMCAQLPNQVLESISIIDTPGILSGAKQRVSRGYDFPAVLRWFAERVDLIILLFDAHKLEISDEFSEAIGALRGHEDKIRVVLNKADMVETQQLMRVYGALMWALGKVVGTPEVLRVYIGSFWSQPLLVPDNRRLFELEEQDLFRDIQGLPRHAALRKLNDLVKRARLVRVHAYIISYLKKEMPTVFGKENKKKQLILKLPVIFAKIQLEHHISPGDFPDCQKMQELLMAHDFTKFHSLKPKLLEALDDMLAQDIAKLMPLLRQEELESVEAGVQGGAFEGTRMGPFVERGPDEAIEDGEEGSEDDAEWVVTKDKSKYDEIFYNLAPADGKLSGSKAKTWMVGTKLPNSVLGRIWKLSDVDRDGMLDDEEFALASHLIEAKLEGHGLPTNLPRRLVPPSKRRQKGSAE


Experiments:
[1] = Liposome co-sedimentation (membrane binding) assay; details: Folch / PS liposomes
Method: (§1) Amino acid numbering corresponds to mouse EHD2. b, EHD2 binds to adenine nucleotides, as determined by ITC. For clarity, ΔΔH=ΔHn−ΔH1 is plotted. […] Images were acquired close to the basal cell surface. f, Nucleotide hydrolysis was measured by HPLC in the absence (empty symbols) or presence of Folch liposomes (filled symbols). Data represent mean and standard deviation for two (intrinisic reactions) or three (stimulated reactions) independent experiments.
(§2) Nucleotide hydrolysis was measured as described in FIG. 1f. In vitro tubulation activity of PS liposomes was analysed as described in FIG. 1d. f, EGFP-tagged mutants were over-expressed in HeLa cells. […] For each construct, three independent experiments with ≈50 cells/experiments were analysed.
(§3) ITC measurements were performed at 10° C. in 20 mM HEPES (pH 7.5), 300 mM NaCl, 2 mM MgCl2. Liposome binding assays were performed as described previously (www.endocytosis.org). Multiple turnover ATPase assays were performed in 20 mM HEPES (pH 7.5), 135 mM NaCl, 15 mM KCl, 1 mM MgCl2 at 30° C. with 10 μM EHD2 (or mutants) as enzyme and 100 μM ATP as substrate, in the absence or presence of 1 mg/ml Folch liposomes (Sigma-Aldrich).
Mouse full-length EHD2 was expressed in bacteria and purified to homogeneity (FIG. 5). The purified protein was nucleotide-free as judged by HPLC analysis. […] It was previously reported that EHDs—despite having a predicted G-domain—bind to adenine nucleotides^15. […] We still refer to this domain as a G-domain because the sequence and fold (see below) are clearly similar to other G-domains. […] Using synthetic liposomes containing various different phosphatidyl-inositols (PI) (FIG. 1c) we observed best binding to liposomes containing PI(4,5)bisphosphate (PIP2).

HeLa cells = assay: Over-expression of EGFP-tagged EHD2 and mutants in HeLa cells (confocal / live imaging); type: cell-based; details: 24 h after transfection, fixed
Method: as §1, §2
Ultracentrifugation. Sedimentation velocity experiments were performed in a Beckman Optima XLA ultracentrifuge, using an An-60Ti rotor. Centrifugation was at 50,000 rev×min and 5° C. at an EHD2 concentration of 15 μM, with scans as fast as possible (˜1.5 min intervals). The data were analysed using DCDT+ v.2^44,45, with the partial specific volume for the protein (from the amino acid composition) and solvent density and viscosity calculated using Sednterp^46. Selected scans (at equal, ˜15 min intervals), and of g(s20,w) (the amount of material sedimenting between s20,w and (s20,w+δs)) and also the residuals for fitting the data with DCDT+, were plotted with the program profit v.5.6.7 (Quantum soft, Switzerland). Cell biology. N-terminal EGFP-tagged EHD2 and all mutants were over-expressed in HeLa cells from the pEGFP-C3 vector (Clontech). HeLa cells were grown as per ECACC guidelines with 10% fetal bovine serum and transfected using Genejuice (Novagen) for transient protein expression. 24 h after transfection, cells were fixed for 10 min at 37° C. in 3% paraformaldehyde and mounted. All confocal images were taken sequentially using a BioRad Radiance system and LaserSharp software (Biorad). For real-time microscopy, transfected cells on glass-bottom Petri dishes (WillCo Wells BV, Amsterdam) were washed with 25 mM HEPES (pH 7.5), 125 mM NaCl, 5 mM KCl, 10 mM D-glucose, 1 mM MgCl2, 2 mM CaCl), and epifluorescence images were taken using an Olympus IX70 microscope (Southhall, UK) and Argon laser (Melles Griot, Carlsbad, Calif.) with a Princeton instruments (Trenton, N.J.) cooled I-PentaMAX camera with MetaMorph software (Universal imaging).
EHD2 wild-type was over-expressed in HeLa cells for 24 h and imaged by EPI-fluorescence for approximately 30 min.
EHD2 T94A was over-expressed in HeLa cells for 24 h and imaged by EPI-fluorescence for approximately 30 min. […] EHD2 I157Q was over-expressed in HeLa cells for 24 h and imaged by EPI-fluorescence for approximately 30 min.

EHD2 = biological target: T1, EHD2; assay: Multiple turnover ATPase assay (nucleotide hydrolysis by HPLC) with or without Folch liposomes; type: biochemical; details: for membrane-stimulated ATPase activity (in words) / decrease in the stimulated ATPase rate versus wt: presence of Folch liposomes; for kobs stimulated ATPase reaction: 10 μM protein, 100 μM ATP, 30° C., presence of 1 mg/ml Folch (or PS) liposomes
Method: as §1, §3
Reactions were started by the addition of the protein to the final reaction mix and nucleotide hydrolysis was followed using standard HPLC measurement^27. Initial rates were determined by applying a linear fit to data points up to 40% nucleotide hydrolysis. For electron microscopic studies, 2.5 μM EHD2 in 20 mM HEPES (pH 7.5), 150 mM NaCl, 1 mM MgCl2 was incubated for 15 min at 25° C. in the presence of 1 mM nucleotide and 0.05 mg/ml (final concentration) of the indicated liposomes. Samples were spotted on carbon-coated copper grids (Canemco and Marivac) and negatively stained with 2% uranyl acetate.
We next monitored the effect of membrane-binding on the ATPase activity of. EHD2 under multiple-turnover conditions (10-fold excess of ATP over EHD2), in the presence and absence of Folch liposoines (FIG. 1f). The intrinsic/background ATPase activity is extremely slow (kobs=0.7 h^−1) but is stimulated 8-fold in the presence of Folch or PS liposomes (kobs=5.6 h^−1).

binding to liposomes (co-sedimentation) [1] | decrease in the stimulated ATPase rate versus wt (EHD2) [%] | Molecule | distribution of EGFP-tagged protein over-expressed in HeLa cells (HeLa cells) | membrane-stimulated ATPase activity (in words) (EHD2) | kobs stimulated ATPase reaction (EHD2) [h⁻¹]
bound to Folch liposomes | – | T72A: EHD2 mutant in the phosphate binding (P-)loop, nucleotide-free (protein, UniProt Q8BH64 1-543, looked up, variant T72A) EH domain-containing protein 2: MFSWLKKGGARGQRPEAIRTVTSSLKELYRTKLLPLEEHYRFGSFHSPALEDADFDGKPMVLVAGQYSTGKASFIQYLLEQEVPGSRVGPEPTTDCFVAVMHGETEGTVPGNALVVDPEKPFRKLNPFGNTFLNRFMCAQLPNQVLESISIIDTPGILSGAKQRVSRGYDFPAVLRWFAERVDLIILLFDAHKLEISDEFSEAIGALRGHEDKIRVVLNKADMVETQQLMRVYGALMWALGKVVGTPEVLRVYIGSFWSQPLLVPDNRRLFELEEQDLFRDIQGLPRHAALRKLNDLVKRARLVRVHAYIISYLKKEMPTVFGKENKKKQLILKLPVIFAKIQLEHHISPGDFPDCQKMQELLMAHDFTKFHSLKPKLLEALDDMLAQDIAKLMPLLRQEELESVEAGVQGGAFEGTRMGPFVERGPDEAIEDGEEGSEDDAEWVVTKDKSKYDEIFYNLAPADGKLSGSKAKTWMVGTKLPNSVLGRIWKLSDVDRDGMLDDEEFALASHLIEAKLEGHGLPTNLPRRLVPPSKRRQKGSAE | cytoplasmic distribution | did not show stimulation of ATP hydrolysis; also recorded: did not show membrane-stimulated ATPase activity | –
bound less to liposomes | 75 | K328D: EHD2 polybasic cluster mutant (protein, UniProt Q8BH64 1-543, looked up, variant K328D) EH domain-containing protein 2: MFSWLKKGGARGQRPEAIRTVTSSLKELYRTKLLPLEEHYRFGSFHSPALEDADFDGKPMVLVAGQYSTGKTSFIQYLLEQEVPGSRVGPEPTTDCFVAVMHGETEGTVPGNALVVDPEKPFRKLNPFGNTFLNRFMCAQLPNQVLESISIIDTPGILSGAKQRVSRGYDFPAVLRWFAERVDLIILLFDAHKLEISDEFSEAIGALRGHEDKIRVVLNKADMVETQQLMRVYGALMWALGKVVGTPEVLRVYIGSFWSQPLLVPDNRRLFELEEQDLFRDIQGLPRHAALRKLNDLVKRARLVRVHAYIISYLKKEMPTVFGKENKDKQLILKLPVIFAKIQLEHHISPGDFPDCQKMQELLMAHDFTKFHSLKPKLLEALDDMLAQDIAKLMPLLRQEELESVEAGVQGGAFEGTRMGPFVERGPDEAIEDGEEGSEDDAEWVVTKDKSKYDEIFYNLAPADGKLSGSKAKTWMVGTKLPNSVLGRIWKLSDVDRDGMLDDEEFALASHLIEAKLEGHGLPTNLPRRLVPPSKRRQKGSAE | completely cytoplasmic distribution | reduced ATPase stimulation | 1.6
bound less to liposomes | 40 | F322A: EHD2 membrane-binding site mutant (protein, UniProt Q8BH64 1-543, looked up, variant F322A) EH domain-containing protein 2: MFSWLKKGGARGQRPEAIRTVTSSLKELYRTKLLPLEEHYRFGSFHSPALEDADFDGKPMVLVAGQYSTGKTSFIQYLLEQEVPGSRVGPEPTTDCFVAVMHGETEGTVPGNALVVDPEKPFRKLNPFGNTFLNRFMCAQLPNQVLESISIIDTPGILSGAKQRVSRGYDFPAVLRWFAERVDLIILLFDAHKLEISDEFSEAIGALRGHEDKIRVVLNKADMVETQQLMRVYGALMWALGKVVGTPEVLRVYIGSFWSQPLLVPDNRRLFELEEQDLFRDIQGLPRHAALRKLNDLVKRARLVRVHAYIISYLKKEMPTVAGKENKKKQLILKLPVIFAKIQLEHHISPGDFPDCQKMQELLMAHDFTKFHSLKPKLLEALDDMLAQDIAKLMPLLRQEELESVEAGVQGGAFEGTRMGPFVERGPDEAIEDGEEGSEDDAEWVVTKDKSKYDEIFYNLAPADGKLSGSKAKTWMVGTKLPNSVLGRIWKLSDVDRDGMLDDEEFALASHLIEAKLEGHGLPTNLPRRLVPPSKRRQKGSAE | completely cytoplasmic distribution | reduced ATPase stimulation | 3.0
